Reference: US12104181B2, “Compositions and methods for treating viral infections targeting TRIM7” (THE BOARD OF REGENTS OF THE UNIVERSITY OF TEXAS SYSTEM, priority 2021, dated 2024)

B1: TRIM50: human RING type E3 ligase expressed from lentiviral vector (protein, UniProt Q86XT4 1-487, looked up)
E3 ubiquitin-protein ligase …: MAWQVSLPELEDRLQCPICLEVFKEPLMLQCGHSYCKGCLVSLSCHLDAELRCPVCRQAVDGSSSLPNVSLARVIEALRLPGDPEPKVCVHHRNPLSLFCEKDQELICGLCGLLGSHQHHPVTPVSTVYSRMKEELAALISELKQEQKKVDELIAKLVNNRTRIVNESDVFSWVIRREFQELHHLVDEEKARCLEGIGGHTRGLVASLDMQLEQAQGTRERLAQAECVLEQFGNEDHHKFIRKFHSMASRAEMPQARPLEGAFSPISFKPGLHQADIKLTVWKRLFRKVLPAPEPLKLDPATAHPLLELSKGNTVVQCGLLAQRRASQPERFDYSTCVLASRGFSCGRHYWEVVVGSKSDWRLGVIKGTASRKGKLNRSPEHGVWLIGLKEGRVYEAFACPRVPLPVAGHPHRIGLYLHYEQGELTFFDADRPDDLRPLYTFQADFQGKLYPILDTCWHERGSNSLPMVLPPPSGPGPLSPEQPTKL
B2: RNF170: human RING type E3 ligase expressed from lentiviral vector (protein, UniProt Q96K19 1-258, looked up)
E3 ubiquitin-protein ligase …: MAKYQGEVQSLKLDDDSVIEGVSDQVLVAVVVSFALIATLVYALFRNVHQNIHPENQELVRVLREQLQTEQDAPAATRQQFYTDMYCPICLHQASFPVETNCGHLFCGACIIAYWRYGSWLGAISCPICRQTVTLLLTVFGEDDQSQDVLRLHQDINDYNRRFSGQPRSIMERIMDLPTLLRHAFREMFSVGGLFWMFRIRIILCLMGAFFYLISPLDFVPEALFGILGFLDDFFVIFLLLIYISIMYREVITQRLTR
modifications: lentiviral expression
notes: human RING type E3 ligase expressed from lentiviral vector
B3: TRIM52: human RING type E3 ligase expressed from lentiviral vector (protein, UniProt Q96A61 1-297, looked up)
E3 ubiquitin-protein ligase …: MAGYATTPSPMQTLQEEAVCAICLDYFKDPVSISCGHNFCRGCVTQLWSKEDEEDQNEEEDEWEEEEDEEAVGAMDGWDGSIREVLYRGNADEELFQDQDDDELWLGDSGITNWDNVDYMWDEEEEEEEEDQDYYLGGLRPDLRIDVYREEEILEAYDEDEDEELYPDIHPPPSLPLPGQFTCPQCRKSFTRRSFRPNLQLANMVQIIRQMCPTPYRGNRSNDQGMCFKHQEALKLFCEVDKEAICVVCRESRSHKQHSVLPLEEVVQEYQEIKLETTLVGILQIEQESIHSKAYNQ
modifications: lentiviral expression
notes: as for B2
B4: TRIM60: human RING type E3 ligase expressed from lentiviral vector (protein, UniProt Q495X7 1-471, looked up)
Tripartite motif-containing …: MEFVTALVNLQEESSCPICLEYLKDPVTINCGHNFCRSCLSVSWKDLDDTFPCPVCRFCFPYKSFRRNPQLRNLTEIAKQLQIRRSKRKRQKENAMCEKHNQFLTLFCVKDLEILCTQCSFSTKHQKHYICPIKKAASYHREILEGSLEPLRNNIERVEKVIILQGSKSVELKKKVEYKREEINSEFEQIRLFLQNEQEMILRQIQDEEMNILAKLNENLVELSDYVSTLKHLLREVEGKSVQSNLELLTQAKSMHHKYQNLKCPELFSFRLTKYGFSLPPQYSGLDRIIKPFQVDVILDLNTAHPQLLVSEDRKAVRYERKKRNICYDPRRFYVCPAVLGSQRFSSGRHYWEVEVGNKPKWILGVCQDCLLRNWQDQPSVLGGFWAIGRYMKSGYVASGPKTTQLLPVVKPSKIGIFLDYELGDLSFYNMNDRSILYTFNDCFTEAVWPYFYTGTDSEPLKICSVSDSER
B5: TRIM59: human RING type E3 ligase expressed from lentiviral vector (protein, UniProt Q8IWR1 1-403, looked up)
Tripartite motif-containing …: MHNFEEELTCPICYSIFEDPRVLPCSHTFCRNCLENILQASGNFYIWRPLRIPLKCPNCRSITEIAPTGIESLPVNFALRAIIEKYQQEDHPDIVTCPEHYRQPLNVYCLLDKKLVCGHCLTIGQHHGHPIDDLQSAYLKEKDTPQKLLEQLTDTHWTDLTHLIEKLKEQKSHSEKMIQGDKEAVLQYFKELNDTLEQKKKSFLTALCDVGNLINQEYTPQIERMKEIREQQLELMALTISLQEESPLKFLEKVDDVRQHVQILKQRPLPEVQPVEIYPRVSKILKEEWSRTEIGQIKNVLIPKMKISPKRMSCSWPGKDEKEVEFLKILNIVVVTLISVILMSILFFNQHIITFLSEITLIWFSEASLSVYQSLSNSLHKVKNILCHIFYLLKEFVWKIVSH
B6: TRIM49: human RING type E3 ligase expressed from lentiviral vector (protein, UniProt P0CI25 1-452, looked up)
Tripartite motif-containing …: MNSGILQVFQGELICPLCMNYFIDPVTIDCGHSFCRPCFYLNWQDIPFLVQCSECTKSTEQINLKTNIHLKKMASLARKVSLWLFLSSEEQMCGTHRETKKIFCEVDRSLLCLLCSSSQEHRYHRHRPIEWAAEEHREKLLQKMQSLWEKACENHRNLNVETTRTRCWKDYVNLRLEAIRAEYQKMPAFHHEEEKHNLEMLKKKGKEIFHRLHLSKAKMAHRMEILRGMYEELNEMCHKPDVELLQAFGDILHRSESVLLHMPQPLNPELSAGPITGLRDRLNQFRVHITLHHEEANNDIFLYEILRSMCIGCDHQDVPYFTATPRSFLAWGVQTFTSGKYYWEVHVGDSWNWAFGVCNMYRKEKNQNEKIDGKAGLFLLGCVKNDIQCSLFTTSPLMLQYIPKPTSRVGLFLDCEAKTVSFVDVNQSSLIYTIPNCSFSPPLRPIFCCIHF
modifications: lentiviral expression
notes: as for B2
B7: TRIM62: human RING type E3 ligase expressed from lentiviral vector (protein)
chain: MACSLKDELLCSICLSIYQDPVSLGCEHYFCRRCITEHWVRQEAQGARDCPECRRTFAEPALAPSLKLANIVERYSSFPLDAILNARRAARPCQAHDKVKLFCLTDRALLCFFCDEPALHEQHQVTGIDDAFDELQRELKDQLQALQDSEREHTEALQLLKRQLAETKSSTKSLRTTIGEAFERLHRLLRERQKAMLEELEADTARTLTDIEQKVQRYSQQLRKVQEGAQILQERLAETDRHTFLAGVASLSERLKGKIHETNLTYEDFPTSKYTGPLQYTIWKSLFQDIHPVPAALTLDPGTAHQRLILSDDCTIVAYGNLHPQPLQDSPKRFDVEVSVLGSEAFSSGVHYWEVVVAEKTQWVIGLAHEAASRKGSIQIQPSRGFYCIVMHDGNQYSACTEPWTRLNVRDKLDKVGVFLDYDQGLLIFYNADDMSWLYTFREKFPGKLCSYFSPGQSHANGKNVQPLRINTVRI
B8: TRIM61: human RING type E3 ligase expressed from lentiviral vector (protein, UniProt Q5EBN2 1-209, looked up)
Putative tripartite …: MEFVTALADLRAEASCPICLDYLKDPVTISCGHNFCLSCIIMSWKDLHDSFPCPFCHFCCPERKFISNPQLGSLTEIAKQLQIRSKKRKRQEEKHVCKKHNQVLTFFCQKDLELLCPRCSLSTDHQHHCVWPIKKAASYHRKKLEEYNAPWKERVELIEKVITMQTRKSLELKKKMESPSVTRLECSCTISAHFNLRLPGSSDSSASGS

Tested on: coxsackievirus B3 (CVB3-GFP)
Assay type: cell-based
Settings: HeLa cells, replicate R1; for Percent Infected R1: GFP-positive cells within RFP-positive gate

Row | Molecule | Percent Infected R1 [%] | Z score R1
1 | B1 | 57.8 | −0.392
2 | B2 | 97.3 | 0.11
3 | B3 | 67.6 | −0.267
4 | B4 | 54.3 | −0.436
5 | B5 | 59.5 | −0.37
6 | B6 | 65.7 | −0.291
7 | B7 | 51.3 | −0.474
8 | B8 | 65.8 | −0.29
